Data from PMC2575619, “Novel splice variants derived from the receptor tyrosine kinase superfamily are potential therapeutics for rheumatoid arthritis” (Arthritis Research & Therapy, 2008).

T1: recombinant human VEGFR3/Fc chimera (human, UniProt P35916 25-775)
T1 construct: Human VEGF receptor type 3, the soluble part fused to Fc; Commercial chimera, probably the extracellular domain on human IgG1 Fc; also called soluble VEGFR3/Fc chimera; source: bought: R&D Systems
T1 sequence (looked up): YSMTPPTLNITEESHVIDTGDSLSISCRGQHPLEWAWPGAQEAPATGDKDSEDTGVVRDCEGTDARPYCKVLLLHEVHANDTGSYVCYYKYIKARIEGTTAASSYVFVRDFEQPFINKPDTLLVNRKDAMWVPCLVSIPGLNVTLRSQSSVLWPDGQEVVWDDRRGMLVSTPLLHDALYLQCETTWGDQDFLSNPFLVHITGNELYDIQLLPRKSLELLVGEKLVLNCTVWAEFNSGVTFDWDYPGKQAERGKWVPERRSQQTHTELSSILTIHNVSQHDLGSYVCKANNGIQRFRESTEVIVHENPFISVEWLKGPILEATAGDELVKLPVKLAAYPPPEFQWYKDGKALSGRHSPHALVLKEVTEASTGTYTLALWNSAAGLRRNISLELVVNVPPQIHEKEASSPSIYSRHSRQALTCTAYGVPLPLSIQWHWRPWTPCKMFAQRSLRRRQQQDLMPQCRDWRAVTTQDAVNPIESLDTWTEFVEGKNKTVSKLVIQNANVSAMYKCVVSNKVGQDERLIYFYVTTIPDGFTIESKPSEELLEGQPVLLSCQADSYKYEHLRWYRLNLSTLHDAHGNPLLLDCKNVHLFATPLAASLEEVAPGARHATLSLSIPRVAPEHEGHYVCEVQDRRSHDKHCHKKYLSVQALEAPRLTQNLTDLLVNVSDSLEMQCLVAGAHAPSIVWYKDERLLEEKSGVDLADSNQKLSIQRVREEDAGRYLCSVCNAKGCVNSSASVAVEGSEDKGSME


Columns and labels:
angiopoietin-1 = angiopoietin-1 (UniProt Q15389); experiment: ELISA; Ang-1 coated on 96-well plates at 4 μg/ml in PBS; purified Tie1-751(6His) applied, 1.5 hours at room temperature, three rinses in PBS/0.05% Tween-20; detected with biotin-labeled extracellular domain-specific antibody
angiopoietin-1, sequence (Q15389 16-498): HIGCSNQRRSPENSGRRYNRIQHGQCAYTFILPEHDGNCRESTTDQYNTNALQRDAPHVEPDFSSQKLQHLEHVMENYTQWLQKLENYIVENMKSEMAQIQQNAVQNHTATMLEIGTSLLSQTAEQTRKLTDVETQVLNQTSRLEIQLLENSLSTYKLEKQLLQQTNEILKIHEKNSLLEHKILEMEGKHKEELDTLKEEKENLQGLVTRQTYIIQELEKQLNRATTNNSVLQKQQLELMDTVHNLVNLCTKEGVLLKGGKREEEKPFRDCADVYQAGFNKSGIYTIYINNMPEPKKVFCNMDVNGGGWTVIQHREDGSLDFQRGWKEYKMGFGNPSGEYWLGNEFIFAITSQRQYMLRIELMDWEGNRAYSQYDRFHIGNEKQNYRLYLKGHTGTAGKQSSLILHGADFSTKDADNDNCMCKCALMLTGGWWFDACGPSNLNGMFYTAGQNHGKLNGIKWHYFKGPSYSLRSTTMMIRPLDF

[1] = target: T1, recombinant human VEGFR3/Fc chimera; experiment: co-IP; competition in the solution binding of VEGF-D to VEGFR3-765-Myc: fivefold molar excess of recombinant human VEGFR3/Fc or VEGFR1/Fc chimera; immunoprecipitation with anti-VEGF-D, blot with anti-Myc; settings: both partners purified

Molecule	Kd (angiopoietin-1) [nM]	binding result [1]
Tie1-751(6His) (from UniProt P35590-1 22-740) (receptor)	89	–
VEGF-D (ligand, human, UniProt O43915 89-205, looked up, Human VEGF-D, bought recombinant protein; source: bought: R&D Systems) FAATFYDIETLKVIDEEWQRTQCSPRETCVEVASELGKSTNTFFKPPCVNVFRCGGCCNEESLICMNTSTSYISKQLFEISVPLTSVPELVPVKVANHTGCKCLPTAPRHPYSIIRR	–	binds
